Measurements reported in paper doi:10.1101/2025.03.24.645041 (2025).

B1: MBP-Vac17(H) [budding yeast] / Strep II-Myo2(1150–1567) [budding yeast] (parent complex)
chain 1: MATQALEDITERLLIRSQEAILQLDLWIQRQQRSSICQTTDQESLDKLSQQYNQYMSQLNSLYVRSESVRDKLSKEQQRRLITEDNEHQRIEDLVREFQDITLRLNELA
chain 2: GVNATQINEELYRLLEDTEILNQEITEGLLKGFEVPDAGVAIQLSKRDVVYPARILIIVLSEMWRFGLTKQSESFLAQVLTTIQKVVTQLKGNDLIPSGVFWLANVRELYSFVVFALNSILTEETFKNGMTDEEYKEYVSLVTELKDDFEALSYNIYNIWLKKLQKQLQKKAINAVVISESLPGFSAGETSGFLNKIFANTEEYTMDDILTFFNSIYWCMKSFHIENEVFHAVVTTLLNYVDAICFNELIMKRNFLSWKRGLQLNYNVTRLEEWCKTHGLTDGTECLQHLIQTAKLLQVRKYTIEDIDILRGICYSLTPAQLQKLISQYQVADYESPIPQEILRYVADIVKKEAALSSSGNDSKGHEHSSSIFITPETGPFTDPFSLIKTRKFDQVEAYIPAWLSLPSTKRIVDLVAQ

Variants of: B1
Experiment: pull-down; Strep II-Myo2 tail co-expressed with MBP-Vac17(H) and immobilized on Strep-Tactin beads; normalized to Vac17 and Myo2 input levels; parent: 1; read off a plot

Row | Variant | ratio to parent
1 | chain 2 K259A, chain 2 R300E | ~0.59
2 | chain 2 E189R, chain 2 K259A, chain 2 V299A | ~0.4
